Here are results for 4 molecules from PMC10837153, “A structural vista of phosducin-like PhLP2A-chaperonin TRiC cooperation during the ATP-driven folding cycle” (Nature Communications, 2024).

A value given as a limit tells only on which side of the number the result lay.

Assay [1] deals with human TRiC (TCP-1 ring complex), his-tagged, CCT1 tagged with GFP (human) (UniProt P17987). The assay can be described thus: cryo-EM structure; TRiC (2 mg/ml) sequentially incubated with PFD and PhLP2A in 1:2:~1, each 20 min at RT, with 1 mM AMP-PNP; 3D-focused classification.
The target in assay [2] is T1, human TRiC subunit CCT4 (human, UniProt P50991 1-539).
T1 construct: TRiC subunit CCT4, human; Subunit of m2, seen only within the TRiC complex; source: High Five insect cells, purified as a subunit of TRiC
T1 sequence: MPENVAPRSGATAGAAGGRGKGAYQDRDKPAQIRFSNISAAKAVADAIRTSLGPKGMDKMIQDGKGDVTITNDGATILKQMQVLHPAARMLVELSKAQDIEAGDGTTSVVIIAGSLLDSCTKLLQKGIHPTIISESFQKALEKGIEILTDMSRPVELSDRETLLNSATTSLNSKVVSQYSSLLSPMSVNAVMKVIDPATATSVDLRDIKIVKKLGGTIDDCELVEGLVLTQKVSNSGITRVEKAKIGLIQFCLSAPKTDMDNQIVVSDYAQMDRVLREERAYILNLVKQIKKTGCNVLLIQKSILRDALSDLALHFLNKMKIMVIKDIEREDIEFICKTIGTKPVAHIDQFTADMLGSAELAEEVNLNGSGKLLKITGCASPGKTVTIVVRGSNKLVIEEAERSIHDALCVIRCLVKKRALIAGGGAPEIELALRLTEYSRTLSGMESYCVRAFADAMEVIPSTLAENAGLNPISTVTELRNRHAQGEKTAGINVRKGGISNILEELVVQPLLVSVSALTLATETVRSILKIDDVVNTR
The assay is described as follows: cryo-EM structure; open TRiC (2 mg/ml) with each truncated PhLP2A mutant (TXD, NTD-TXD, TXD-CTD) in 1:2 molar ratio, 20 min at RT. The following applies: both partners purified.

In assay [3] the target is T2, human TRiC subunit CCT3 (human, UniProt P49368 1-545).
T2 construct: TRiC subunit CCT3, human; Subunit of m2, seen only within the TRiC complex; source: High Five insect cells, purified as a subunit of TRiC
T2 sequence: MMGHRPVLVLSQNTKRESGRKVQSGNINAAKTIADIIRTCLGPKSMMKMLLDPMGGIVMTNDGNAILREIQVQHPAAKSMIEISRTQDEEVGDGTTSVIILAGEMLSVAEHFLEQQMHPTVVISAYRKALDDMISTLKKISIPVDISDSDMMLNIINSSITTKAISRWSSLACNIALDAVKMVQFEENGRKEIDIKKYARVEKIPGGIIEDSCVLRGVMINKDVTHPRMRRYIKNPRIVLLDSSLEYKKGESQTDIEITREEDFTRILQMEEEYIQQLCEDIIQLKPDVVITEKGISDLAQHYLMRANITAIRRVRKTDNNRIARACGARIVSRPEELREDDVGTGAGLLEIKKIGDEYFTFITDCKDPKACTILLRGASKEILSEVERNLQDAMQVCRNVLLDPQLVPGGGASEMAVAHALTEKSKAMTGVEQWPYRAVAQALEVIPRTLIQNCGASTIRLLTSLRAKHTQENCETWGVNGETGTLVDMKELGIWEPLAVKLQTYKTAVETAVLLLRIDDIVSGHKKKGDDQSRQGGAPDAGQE
The assay is described as above. The following applies: both partners purified.

For assay [4], the target named is human TRiC (TCP-1 ring complex), his-tagged, CCT1 tagged with GFP (human) (UniProt P17987). The assay is described as follows: cryo-EM structure; closed TRiC: TRiC (0.8 mg/ml) with each truncated PhLP2A mutant (TXD, NTD-TXD, TXD-CTD) 1:2 for 20 min, then 1 mM ATP, 6 mM NaF, 10 mM MgCl2, 50 mM KCl, 1 h at RT.
For assay [5] the target is unchanged. The assay is described as follows: cryo-EM structure; open TRiC (2 mg/ml) with each truncated PhLP2A mutant (TXD, NTD-TXD, TXD-CTD) in 1:2 molar ratio, 20 min at RT.
Assay [6] has the same target. The assay can be described thus: native gel or EMSA; competition: unlabeled PhLP2A (0.01-10 μM) added to GFP-TRiC (0.25 μM) pre-incubated with AF-647 labeled PFD (1 μM); Native PAGE 4-16%, in-gel fluorescence. (In EMSA bound probe runs differently from free probe, usually more slowly.)
Assay [7] has the same target. The assay is described as follows: native gel or EMSA; native PAGE mobility shift; 0.25 μM open TRiC, PhLP2A 0.01-10 μM, ATPase buffer (30 mM Tris pH 7.4, 120 mM KCl, 5 mM MgCl2, 1 mM DTT), about 30 min at room temperature; apparent Kd; three repetitions.
Assay [8] has the same target. The assay can be described thus: cryo-EM structure; closed TRiC: TRiC (0.8 mg/ml) with PhLP2A 1:4 for 30 min, then 1 mM ATP, 1 mM Al3(NO3)3, 6 mM NaF, 10 mM MgCl2, 50 mM KCl, 1 h at RT.

The molecule “human Prefoldin (from UniProt O15212 1-129) (complex)” returned a percent of TRiC particles with PFD bound (3D classification) in assay [1] of 25%.

B1: PhLP2A NTD-TXD (aa 1–211), CTD truncation (domain or fragment, human, UniProt Q9H2J4 1-211, looked up)
chain: MQDPNADTEWNDILRKKGILPPKESLKELEEEAEEEQRILQQSVVKTYEDMTLEELEDHEDEFNEEDERAIEMYRRRRLAEWKATKLKNKFGEVLEISGKDYVQEVTKAGEGLWVILHLYKQGIPLCALINQHLSGLARKFPDVKFIKAISTTCIPNYPDRNLPTIFVYLEGDIKAQFIGPLVFGGMNLTRDELEWKLSESGAIMTDLEEN
notes: PhLP2A, human, NTD and TXD, aa 1-211; also called N + TXT fragment; source: E. coli BL21 Rosetta2 pLysS, purified (nickel resin, SDX200); not shown: His6 (encoded by the 3' primer), C-terminal, kept
For the molecule B1, the binding result in assay [2] and in assay [3] was “binds” throughout. Moreover, the percent of closed TRiC particles with NTD-TXD density in the chamber in assay [4] worked out at 8.25%. In addition, in assay [5], the percent of TRiC particles with NTD-TXD density in the chamber was 19.8%.

B2: human PhLP2A (phosducin-like protein 2A), full length (natural protein)
chain: MQDPNADTEWNDILRKKGILPPKESLKELEEEAEEEQRILQQSVVKTYEDMTLEELEDHEDEFNEEDERAIEMYRRRRLAEWKATKLKNKFGEVLEISGKDYVQEVTKAGEGLWVILHLYKQGIPLCALINQHLSGLARKFPDVKFIKAISTTCIPNYPDRNLPTIFVYLEGDIKAQFIGPLVFGGMNLTRDELEWKLSESGAIMTDLEENPKKPIEDVLLSSVRRSVLMKRDSDSEGD
modifications: AF-568 (Alexa568) label, site not stated, only in the native PAGE mobility shift and competition assays
In the case of B2, the percent of TRiC-bound PFD displaced in assay [6] is under 70%. In assay [7], the Kd is 170 nM. Further, in assay [8], the percent of closed TRiC particles with PhLP2A in both chambers amounted to 9.5% and the percent of closed TRiC particles with PhLP2A in one chamber came to 14%. For the same molecule, the percent of TRiC particles with PhLP2A bound (3D classification) in assay [1] came out at 22.9%.

B3: PhLP2A TXD-CTD (aa 85–239), NTD truncation (domain or fragment, human, UniProt Q9H2J4 85-239, looked up)
chain: TKLKNKFGEVLEISGKDYVQEVTKAGEGLWVILHLYKQGIPLCALINQHLSGLARKFPDVKFIKAISTTCIPNYPDRNLPTIFVYLEGDIKAQFIGPLVFGGMNLTRDELEWKLSESGAIMTDLEENPKKPIEDVLLSSVRRSVLMKRDSDSEGD
notes: PhLP2A, human, TXD and CTD, aa 85-239; the 5' primer translates to M-KLKNKFG; also called TXT-C term; source: E. coli BL21 Rosetta2 pLysS, purified (nickel resin, SDX200); not shown: His6 (encoded by the 3' primer), C-terminal, kept
For B3, the binding result in assay [3] was “binds”.
